Reference: patent publication US20210095024A1 (Janssen / Centocor, published 2021)
Residue numbers refer to the chain shown, from its start.

B1: CCMB23.004 (antibody, V domains shown)
VH: QLQLQESGPGLVKPSETLSLTCTVSADSISRTSYYWGWIRQPPGKGLEWIGTIYYSGSTYYNPSLKSRVTISVDTSRNHFSLTLNSVTAADTAVYYCARQIAVGAHRFDYWGQGTLVTVSS
VL: DIQLTQSPSFLSASVGDRVTITCRASQGISSYLAWYQQKPGKAPKLLIYAASTLQSGVPSRFSGSGSGTEFTLTISSLQPEDFATYYCQQLNSYPWTFGQGTKVEIK
notes: also called mAb 8
B2: CCMB35.004 (antibody, V domains shown)
VH: EVQLLESGGGLVQPGESLRLSCAASGLTFSDYAMNWVRQAPGKGLYWVSSISGTGGSTYYADSLKGRFTISRDNSKNTLYLQMNSLRAEDTAVYYCAKDIAVGVTAYFDHWGQGTLVTVSS
VL: SSELTQDPAVSVALGQTVRITCQGDSLRTYSASWYQQKPGQAPVLVIYGKNNRPSGIPDRFSGSSSGNTASLTITGAQAEDEADYYCNSRDSRGNLLVVFGGGTKLTVL
notes: also called mAb 9
B3: CCMB61.004 (antibody, V domains shown)
VH: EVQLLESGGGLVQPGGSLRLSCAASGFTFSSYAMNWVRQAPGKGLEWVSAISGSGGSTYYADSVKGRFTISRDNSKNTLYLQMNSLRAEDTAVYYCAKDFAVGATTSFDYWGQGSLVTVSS
VL: SSELTQDPAVSVALGQTVRITCQGDSLRSYYVSWYQQKPGQAPTLVIYGKNNRPSGIPDRFSGSSSGNTPSLTITGAQAEDEADYYCNSRDSSNHLVVFGGRTKLTVL
notes: also called mAb 11
B4: CCMB02.004 (antibody, V domains shown)
VH: EVQLLESGGGLVQPGGSLRLSCAASGFTFINYAMNWVRLTPGKGLEWVSVISGSGSGTYYADSVKGRFTVSRDNSKNTLYLQMNSLRVEDTAIYYCASPPPMVRGVIITIGNYWGQGALVTVSS
VL: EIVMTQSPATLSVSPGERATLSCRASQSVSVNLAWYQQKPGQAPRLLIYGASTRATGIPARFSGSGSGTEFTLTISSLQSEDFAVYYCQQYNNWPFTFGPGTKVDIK
notes: also called mAb 1
B5: CCMB07.004 (antibody, V domains shown)
VH: B4 VH with I30T, T40A
VL: EIVMTQSPATLSVSPGERATLSCRASQSVSVNLAWYQQKPGQAPRLLIYGASTRATSIPTRFSGSGSGTEFTLTISSLQSEDFAVYYCQQYNNWPFTFGPGTKVEIK
notes: also called mAb 4
B6: CCMB03.004 (antibody, V domains shown)
VH: QVQLVQSGSELRTPGASVKVSCKASGYTFTSYGLSWVRQAPGQGLEWMGWINTNTGNPTYAQGFTGRFVFSLDTSVSTAYLQISSLKAEDTAVYYCARKGIWGPFDYWGQGTLVTVSS
VL: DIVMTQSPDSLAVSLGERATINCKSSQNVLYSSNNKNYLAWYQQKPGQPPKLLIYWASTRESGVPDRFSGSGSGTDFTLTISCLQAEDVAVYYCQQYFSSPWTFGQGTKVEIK
notes: also called mAb 2
B7: CCMB04.004 (antibody, V domains shown)
VH: B6 VH with R12K, T13K, S31N, L34V, S35N, A61V, S77T, Q82H, Y95F, Y107H
VL: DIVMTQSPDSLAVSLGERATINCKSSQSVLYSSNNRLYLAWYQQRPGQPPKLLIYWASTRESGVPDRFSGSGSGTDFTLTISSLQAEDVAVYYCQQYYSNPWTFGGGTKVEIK
notes: also called mAb 3
B8: CCMB09.004 (antibody, V domains shown)
VH: QVQLQESGPGLVKPSQTLSLTCTVTGDSIRSGGHYWSWIRQHPGKGLEWIGNIYYSGSTHYNPSLKSRLTISVDTSKNQFSLKVSSVTAADTAVYYCARGRLLWFGEPQDFQHWGQGTLVTVSS
VL: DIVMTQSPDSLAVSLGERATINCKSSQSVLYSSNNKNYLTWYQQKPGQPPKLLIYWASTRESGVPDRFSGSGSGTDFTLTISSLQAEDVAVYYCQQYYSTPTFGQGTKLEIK
notes: also called mAb 5
B9: CCMB18.004 (antibody, V domains shown)
VH: QVQLVQSGSELKKPGASVKVSCKASGYTLTDYGMNWVRQAPGQGLQWMGWINTNTGNPTYAQGFTGRFVFSLDTSVSTAYLQISSLKTEDTAVYYCARKAIWGWFDPWGQGTLVTVSS
VL: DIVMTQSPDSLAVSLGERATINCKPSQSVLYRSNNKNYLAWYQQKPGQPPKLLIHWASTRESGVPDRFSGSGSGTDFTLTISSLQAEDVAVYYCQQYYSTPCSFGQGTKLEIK
notes: also called mAb 6
B10: CCMB20.004 (antibody, V domains shown)
VH: EVQLLESGGGLVQPGESLRLSCAASGFTFNNYAMTWVRQAPGKGLDWVSSISGTSANTYYADAVKGRFTISRDNSMTTLYLQMNSLRAEDTAVYYCAKPILTLFGELPLDYWGQGTLVTVSS
VL: B5 VL with V31S, P40T, S57A, I58F, T60A, F96L, P100G
notes: also called mAb 7
B11: CCMB42.004 (antibody, V domains shown)
VH: EVQLLESGGGLVQPGGSLRLSCAASGFTFNTYGMSWARQAPGKGLEWVSTISGSGDNTYYADSVKGRFTISRDNSKNTLYLQINSLRAEDTAVYYCAKGGLLWFGELPYPFDYWGQGTLVTVSS
VL: QSALTQPASVSGSPGQSITISCTGTSSDVGGYNYVSWYQQHPGKAPKLMIYDVSNRPSGVSNRFSGSKSDNTASLTISGLQAEDEADYYCSSYISTSTLYVFGIGTKVTVL
notes: also called mAb 10
B12: CCMB66.004 (antibody, V domains shown)
VH: EVQLVQSGAEVKKPGESLKISCKGSGYSFTSYWIGWVRQMPGKGLEWMGIIYPGDSDTRYSPSFQGQVTISADKSISTAYLQWSSLKASDTAMYYCARGYPAPTVNDLDYWGQGTLVTVSS
VL: not shown
notes: also called mAb 12

How the values were obtained:
[1] = biological target: T1, CEACAM6 overexpressed on HEK293T cells (human, UniProt P40199 35-320); test: flow cytometry on HEK293T cells overexpressing CEACAM6
T1 construct: also called CEACAM6 expressing HEK293T cells
T1 sequence: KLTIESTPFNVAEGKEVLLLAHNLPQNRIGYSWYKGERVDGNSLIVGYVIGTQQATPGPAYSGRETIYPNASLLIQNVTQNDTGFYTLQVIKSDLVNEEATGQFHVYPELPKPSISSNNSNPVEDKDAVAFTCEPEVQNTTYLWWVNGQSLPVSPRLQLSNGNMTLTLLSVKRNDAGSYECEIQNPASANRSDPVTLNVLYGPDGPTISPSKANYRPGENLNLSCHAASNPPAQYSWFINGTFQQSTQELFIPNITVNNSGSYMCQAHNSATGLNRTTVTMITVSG

[2] = biological target: T2, CEACAM5 overexpressed on HEK293T cells (human, UniProt P06731 35-685); test: flow cytometry on HEK293T cells overexpressing CEACAM5
T2 construct: also called CEACAM5 expressing HEK293T cells
T2 sequence: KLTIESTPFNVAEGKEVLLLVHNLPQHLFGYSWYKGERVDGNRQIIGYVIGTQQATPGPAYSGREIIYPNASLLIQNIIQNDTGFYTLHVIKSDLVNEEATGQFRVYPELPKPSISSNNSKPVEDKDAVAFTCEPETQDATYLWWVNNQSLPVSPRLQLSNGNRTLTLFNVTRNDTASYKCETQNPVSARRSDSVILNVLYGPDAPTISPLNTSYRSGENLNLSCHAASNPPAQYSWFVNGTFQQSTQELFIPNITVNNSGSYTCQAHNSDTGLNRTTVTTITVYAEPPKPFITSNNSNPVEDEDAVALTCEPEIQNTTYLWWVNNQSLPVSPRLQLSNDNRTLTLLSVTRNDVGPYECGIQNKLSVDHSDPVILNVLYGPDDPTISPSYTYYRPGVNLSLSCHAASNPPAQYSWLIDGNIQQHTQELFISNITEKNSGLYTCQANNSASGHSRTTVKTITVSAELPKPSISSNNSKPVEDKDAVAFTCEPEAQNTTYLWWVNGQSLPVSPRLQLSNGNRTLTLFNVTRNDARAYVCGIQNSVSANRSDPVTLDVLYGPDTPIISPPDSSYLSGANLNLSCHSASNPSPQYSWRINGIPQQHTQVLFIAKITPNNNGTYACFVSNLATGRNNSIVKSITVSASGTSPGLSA

[3] = biological target: T3, full length CEACAM1 overexpressed on HEK293T cells (human, UniProt P13688 35-526); test: flow cytometry on HEK293T cells overexpressing CEACAM1
T3 construct: also called CEACAM-1 expressing HEK293T cells
T3 sequence: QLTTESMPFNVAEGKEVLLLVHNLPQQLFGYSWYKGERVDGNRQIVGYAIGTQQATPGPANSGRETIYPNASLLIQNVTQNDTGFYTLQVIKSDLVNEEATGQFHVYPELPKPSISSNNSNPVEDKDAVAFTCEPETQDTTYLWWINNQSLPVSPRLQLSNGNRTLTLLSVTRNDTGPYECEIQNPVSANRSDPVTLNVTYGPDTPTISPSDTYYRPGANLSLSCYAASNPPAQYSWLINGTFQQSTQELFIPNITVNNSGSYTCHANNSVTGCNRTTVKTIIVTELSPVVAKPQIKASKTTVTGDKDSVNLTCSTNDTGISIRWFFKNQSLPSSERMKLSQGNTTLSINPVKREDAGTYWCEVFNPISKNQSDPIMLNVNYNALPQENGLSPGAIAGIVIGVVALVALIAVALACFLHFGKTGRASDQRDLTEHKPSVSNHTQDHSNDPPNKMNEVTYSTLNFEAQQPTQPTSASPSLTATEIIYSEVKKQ
Description: CEACAM1 overexpressing cells were then subcloned and sorted for purified populations of CEACAM1 positive cells, using standard techniques (FIG. 3). These cells were then used to generate binding curves by flow cytometry (FIG. 4).

[4] = biological target: T4, recombinant CEACAM6 (R&D Systems #3934-CM) (human, UniProt P40199 35-320); test: ELISA, plate-coated recombinant CEACAM6
T4 construct: Bought protein
T4 sequence: T1 sequence
Experimental: (§1) Plates were coated with 50 μl of 1 μg/ml of CEACAM1 (#2244-CM, R&D Systems) overnight at 4° C. The next day, in 16 h, plates were blocked with 200 μl 0.4% bovine serum albumin (BSA) (Sigma, A9647) in PBS for 1 hr at room temperature. Plates were washed once with 300 μl of 0.02% Tween-20 in PBS on a Biotek plate washer. 1/2 log dilutions of CEACAM mAbs starting from 10 μg/ml to 0.0001 ug/ml in 0.4% BSA, or PBS only, were plated for each antibody. 50 μl of each dilution were added to coated plates. Plates were incubated at room temp for approx 30 min. Plates were then washed 3 times with 300 μl of 0.02% Tween-20 in PBS using a Biotek plate washer. […] Plates were incubated at room temp for approximately 30 min. Plates were then washed 3 times with 300 ul of PBS/0.02% Tween-20 on a Biotek plate washer. 50 μl of 3,3′,5,5′-Tetramethylbenzidine (TMB, Sigma T0440) were added, allowed for color development, followed by adding 50 ul of 4N H₂SO₄. Plates were analyzed at 450 nm using EnVision Microplate Reader (PerkinElmer). Isotype control (CNT08939 antibody, specific to RSV virus, having the human IgG2 sigma backbone) was plated on last 3 plates at a concentration 10 μg/ml. Absorbance at 450 nm (FIG. 2) was analyzed using XY scatter plots and non-linear fit curves were generated after log transformation, and EC50 values were calculated, using GraphPad Prism (GraphPad Software, San Diego, Calif.). For several antibodies the EC50 could not be calculated using GraphPad Prism due to poor curve fit; in these cases the EC50 values were visually estimated at the midpoint of the available curve. EC50 values for binding to recombinant CEACAM1 are represented in Table 1.
(§2) 3.1 Binding to recombinant CEACAM5 and CEACAM6. Cross-screening for specificity of purified phage and hybridoma antibodies to recombinant CEACAM5 (R&D Systems #4128-CM) and CEACAM6 (R&D Systems #3934-CM) was performed using ELISA, according to the protocol described in Example 2. Binding curves for binding of mAbs to CEACAM5 are shown on FIG. 5a, and to CEACAM6 on FIG. 5b.

[5] = biological target: T5, recombinant CEACAM5 (R&D Systems #4128-CM) (human, UniProt P06731 35-685); test: ELISA, plate-coated recombinant CEACAM5
T5 construct: Bought protein
T5 sequence: T2 sequence
Experimental: as §1, §2

binding result [1]	binding result [2]	EC50 [3]	EC50 [4]	EC50 [5]	EC50 [1]	Binder
no binding	no binding	0.00419 µg/mL				B1
no binding	no binding	0.0275 µg/mL				B2
	no binding	0.0353 µg/mL	1240 µg/mL			B3
no binding				50 µg/mL		B4
no binding				9.77 µg/mL		B5
			5 µg/mL	16.4 µg/mL	0.00515 µg/mL	B6
			5.57 µg/mL	6.46 µg/mL	0.0109 µg/mL	B7
			5.13 µg/mL	4.46 µg/mL	0.0158 µg/mL	B8
			6.05 µg/mL	4.32 µg/mL	0.0118 µg/mL	B9
no binding				4.27 µg/mL		B10
no binding				1.14 µg/mL		B11
no binding				1690 µg/mL		B12
